From the supplement of paper PMC5998384 come the findings set out here.

Data set [1] relates to HeLa Kyoto. The data set is described as follows: solubility in G1/S (NP-40 vs SDS abundance) (log2 ratio); higher = more soluble. As to conditions: cell cycle stage: G1/S.
For data set [2], the system named is HeLa Kyoto. The data set is described as follows: melting temperature (median over replicates), in situ; higher = more thermally stable.
Data set [3] deals with HeLa Kyoto. The data set is described as follows: thermal stability score vs G1/S (z-score of summed log2 fold changes over temperatures); higher = more thermally stable than in G1/S.
Data set [4] has as its system HeLa Kyoto. The data set is described as follows: solubility change mitosis vs G1/S (difference of NP-40 vs SDS log2 ratios) (log2 ratio difference); higher = more soluble in mitosis.
The mark [5] stands for this setting: cell cycle stage: early G1 (4.5 h after nocodazole release).
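For melting temperature (median over replicates), in situ in this document: HeLa Kyoto cells synchronized by double thymidine or nocodazole block, proteins quantified by TMT10plex mass spectrometry, three independent biological replicates.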
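For solubility change mitosis vs G1/S (difference of NP-40 vs SDS log2 ratios) in this document: synchronized HeLa Kyoto cells (double thymidine block for G1/S, nocodazole release for mitosis), protein amounts in NP-40 versus SDS lysates quantified by mass spectrometry, three biological replicates.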
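For solubility in G1/S (NP-40 vs SDS abundance) in this document: HeLa Kyoto cells arrested at G1/S by double thymidine block, proteins quantified by TMT10plex mass spectrometry in mild NP-40 versus SDS extracts, three biological replicates.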
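For thermal stability score vs G1/S (z-score of summed log2 fold changes over temperatures) in this document: synchronized HeLa Kyoto cells, proteins quantified by TMT10plex mass spectrometry, three biological replicates, mitosis taken 0.5 h after nocodazole release, G1/S directly after double thymidine block.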

Sequence of TLK2 (chain, as listed by the source): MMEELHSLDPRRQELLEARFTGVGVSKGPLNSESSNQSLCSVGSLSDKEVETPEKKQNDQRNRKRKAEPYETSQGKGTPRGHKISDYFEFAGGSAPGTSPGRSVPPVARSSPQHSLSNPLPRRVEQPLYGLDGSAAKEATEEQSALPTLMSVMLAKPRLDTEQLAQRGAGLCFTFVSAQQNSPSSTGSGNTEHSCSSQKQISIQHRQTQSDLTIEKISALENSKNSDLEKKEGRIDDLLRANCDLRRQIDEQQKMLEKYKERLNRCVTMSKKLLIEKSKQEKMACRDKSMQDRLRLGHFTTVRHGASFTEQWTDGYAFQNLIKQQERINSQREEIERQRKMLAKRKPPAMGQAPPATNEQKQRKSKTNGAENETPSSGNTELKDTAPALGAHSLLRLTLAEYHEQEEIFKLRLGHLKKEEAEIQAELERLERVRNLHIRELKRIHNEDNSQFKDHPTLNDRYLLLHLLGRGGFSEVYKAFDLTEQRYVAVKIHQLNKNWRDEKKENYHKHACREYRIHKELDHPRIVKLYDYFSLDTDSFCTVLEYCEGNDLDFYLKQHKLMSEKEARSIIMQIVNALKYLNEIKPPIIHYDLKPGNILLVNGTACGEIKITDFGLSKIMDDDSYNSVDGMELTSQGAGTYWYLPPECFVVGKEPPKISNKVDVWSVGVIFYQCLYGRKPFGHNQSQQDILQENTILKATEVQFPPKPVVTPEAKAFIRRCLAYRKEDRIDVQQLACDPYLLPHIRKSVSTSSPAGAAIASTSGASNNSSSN

As for “MAAGGDHGSPDSYRSPLASRYASPEMCFVFSDRYKFRTWRQLWLWLAEAEQTLGLPITDEQIQEMKSNLENIDFKMAAEEEKRLRHDVMAHVHTFGHCCPKAAGIIHLGATSCYVGDNTDLIILRNALDLLLPKLARVISRLADFAKERASLPTLGFTHFQPAQLTTVGKRCCLWIQDLCMDLQNLKRVRDDLRFRGVKGTTGTQASFLQLFEGDDHKVEQLDKMVTEKAGFKRAFIITGQTYTRKVDIEVLSVLASLGASVHKICTDIRLLANLKEMEEPFEKQQIGSSAMPYKRNPMRSERCCSLARHLMTLVMDPLQTASVQWFERTLDDSANRRICLAEAFLTADTILNTLQNISEGLVVYPKVIERRIRQELPFMATENIIMAMVKAGGSRQDCHEKIRVLSQQAASVVKQEGGDNDLIERIQVDAYFSPIHSQLDHLLDPSSFTGRASQQVQRFLEEEVYPLLKPYESVMKVKAELCL [ADSL]”, in data set [1], the “solubility in G1/S (log2)” value was 0.108. Further, the melting temperature in data set [2] (cell cycle stage: G1/S) is 57.2 °C; in data set [2] (cell cycle stage: mitosis) it was 57.8 °C. In addition, the thermal stability score in data set [3] (setting [5]) is -1.75; in data set [3] (cell cycle stage: mitosis) it was -1.49. In addition, the “solubility change mitosis (log2)” value in data set [4] is -0.138.

Turning to “MAAGVEAAAEVAATEIKMEEESGAPGVPSGNGAPGPKGEGERPAQNEKRKEKNIKRGGNRFEPYANPTKRYRAFITNIPFDVKWQSLKDLVKEKVGEVTYVELLMDAEGKSRGCAVVEFKMEESMKKAAEVLNKHSLSGRPLKVKEDPDGEHARRAMQKVMATTGGMGMGPGGPGMITIPPSILNNPNIPNEIIHALQAGRLGSTVFVANLDYKVGWKKLKEVFSMAGVVVRADILEDKDGKSRGIGTVTFEQSIEAVQAISMFNGQLLFDRPMHVKMDERALPKGDFFPPERPQQLPHGLGGIGMGLGPGGQPIDANHLNKGIGMGNIGPAGMGMEGIGFGINKMGGMEGPFGGGMENMGRFGSGMNMGRINEILSNALKRGEIIAKQGGGGGGGSVPGIERMGPGIDRLGGAGMERMGAGLGHGMDRVGSEIERMGLVMDRMGSVERMGSGIERMGPLGLDHMASSIERMGQTMERIGSGVERMGAGMGFGLERMAAPIDRVGQTIERMGSGVERMGPAIERMGLSMERMVPAGMGAGLERMGPVMDRMATGLERMGANNLERMGLERMGANSLERMGLERMGANSLERMGPAMGPALGAGIERMGLAMGGGGGASFDRAIEMERGNFGGSFAGSFGGAGGHAPGVARKACQIFVRNLPFDFTWKMLKDKFNECGHVLYADIKMENGKSKGCGVVKFESPEVAERACRMMNGMKLSGREIDVRIDRNA [HNRNPM]”, the “solubility in G1/S (log2)” value in data set [1] is -0.172. In addition, the melting temperature in data set [2] (cell cycle stage: G1/S) was found to be 46.7 °C; in data set [2] (cell cycle stage: mitosis) it was 47.3 °C. Further, the values for the thermal stability score in data set [3] (setting [5]) and in data set [3] (cell cycle stage: mitosis) were 6.88 and 13.2, respectively. For the same substance, the “solubility change mitosis (log2)” value in data set [4] was 0.236.

With “MPSTDLLMLKAFEPYLEILEVYSTKAKNYVNGHCTKYEPWQLIAWSVVWTLLIVWGYEFVFQPESLWSRFKKKCFKLTRKMPIIGRKIQDKLNKTKDDISKNMSFLKVDKEYVKALPSQGLSSSAVLEKLKEYSSMDAFWQEGRASGTVYSGEEKLTELLVKAYGDFAWSNPLHPDIFPGLRKIEAEIVRIACSLFNGGPDSCGCVTSGGTESILMACKAYRDLAFEKGIKTPEIVAPQSAHAAFNKAASYFGMKIVRVPLTKMMEVDVRAMRRAISRNTAMLVCSTPQFPHGVIDPVPEVAKLAVKYKIPLHVDACLGGFLIVFMEKAGYPLEHPFDFRVKGVTSISADTHKYGYAPKGSSLVLYSDKKYRNYQFFVDTDWQGGIYASPTIAGSRPGGISAACWAALMHFGENGYVEATKQIIKTARFLKSELENIKGIFVFGNPQLSVIALGSRDFDIYRLSNLMTAKGWNLNQLQFPPSIHFCITLLHARKRVAIQFLKDIRESVTQIMKNPKAKTTGMGAIYGMAQTTVDRNMVAELSSVFLDSLYSTDTVTQGSQMNGSPKPH [SGPL1]”, the “solubility in G1/S (log2)” value in data set [1] was -0.0885. Also, the melting temperature is 53.3 °C in data set [2] (cell cycle stage: G1/S) and 54.3 °C in data set [2] (cell cycle stage: mitosis). The thermal stability score in data set [3] (setting [5]) is -0.294; in data set [3] (cell cycle stage: mitosis) it was 0.467. In addition, the “solubility change mitosis (log2)” value in data set [4] is -0.101.

In the case of TLK2, in data set [1], the “solubility in G1/S (log2)” value was -0.0304. The melting temperature in data set [2] (cell cycle stage: G1/S) worked out at 50.9 °C; in data set [2] (cell cycle stage: mitosis) it was 52.2 °C. In addition, the thermal stability score in data set [3] (setting [5]) came to 1.27; in data set [3] (cell cycle stage: mitosis), 1.41. The “solubility change mitosis (log2)” value in data set [4] was -0.141.

With “MREYKLVVLGSGGVGKSALTVQFVQGIFVEKYDPTIEDSYRKQVEVDCQQCMLEILDTAGTEQFTAMRDLYMKNGQGFALVYSITAQSTFNDLQDLREQILRVKDTEDVPMILVGNKCDLEDERVVGKEQGQNLARQWCNCAFLESSAKSKINVNEIFYDLVRQINRKTPVEKKKPKKKSCLLL [RAP1A]”, the “solubility in G1/S (log2)” value in data set [1] was determined as 0.0631. Further, the melting temperature is 58.5 °C in data set [2] (cell cycle stage: G1/S) and 57.6 °C in data set [2] (cell cycle stage: mitosis). Moreover, the thermal stability score in data set [3] (setting [5]) is 1.29; in data set [3] (cell cycle stage: mitosis) it was -0.46. Also, the “solubility change mitosis (log2)” value in data set [4] was -0.0963.

For the substance “MTIHQFLLLFLFWVCLPHFCSPEIMFRRTPVPQQRILSSRVPRSDGKILHRQKRGWMWNQFFLLEEYTGSDYQYVGKLHSDQDKGDGSLKYILSGDGAGTLFIIDEKTGDIHATRRIDREEKAFYTLRAQAINRRTLRPVEPESEFVIKIHDINDNEPTFPEEIYTASVPEMSVVGTSVVQVTATDADDPSYGNSARVIYSILQGQPYFSVEPETGIIRTALPNMNRENREQYQVVIQAKDMGGQMGGLSGTTTVNITLTDVNDNPPRFPQNTIHLRVLESSPVGTAIGSVKATDADTGKNAEVEYRIIDGDGTDMFDIVTEKDTQEGIITVKKPLDYESRRLYTLKVEAENTHVDPRFYYLGPFKDTTIVKISIEDVDEPPVFSRSSYLFEVHEDIEVGTIIGTVMARDPDSISSPIRFSLDRHTDLDRIFNIHSGNGSLYTSKPLDRELSQWHNLTVIAAEINNPKETTRVAVFVRILDVNDNAPQFAVFYDTFVCENARPGQLIQTISAVDKDDPLGGQKFFFSLAAVNPNFTVQDNEDNTARILTRKNGFNRHEISTYLLPVVISDNDYPIQSSTGTLTIRVCACDSQGNMQSCSAEALLLPAGLSTGALIAILLCIIILLVIVVLFAALKRQRKKEPLILSKEDIRDNIVSYNDEGGGEEDTQAFDIGTLRNPAAIEEKKLRRDIIPETLFIPRRTPTAPDNTDVRDFINERLKEHDLDPTAPPYDSLATYAYEGNDSIAESLSSLESGTTEGDQNYDYLREWGPRFNKLAEMYGGGESDKDS [CDH10]”, the “solubility in G1/S (log2)” value in data set [1] stood at 0.0681. In addition, the melting temperature in data set [2] (cell cycle stage: G1/S) amounted to 55.5 °C; in data set [2] (cell cycle stage: mitosis), 52.5 °C. For the same substance, the thermal stability score was -0.401 in data set [3] (setting [5]) and -1.3 in data set [3] (cell cycle stage: mitosis). The “solubility change mitosis (log2)” value in data set [4] was -0.163.

Regarding “MGRDTRSRSRSAGRRGRRRQSQSGSRSRSRSHGRRNRRRREDEGRRRRRRRSRERRSDSEEERWQRSGMRSRSPPRPKWHSRDGSSQSDSGEEQSRGQWARRRRRARSWSPSSSASSSASPGRSQSPRAAAAALSQQQSLQERLRLREERKQQEELMKAFETPEEKRARRLAKKEAKERKKREKMGWGEEYMGYTNTDNPFGDNNLLGTFIWNKALEKKGISHLEEKELKERNKRIQEDNRLELQKVKQLRLEREREKAMREQELEMLQREKEAEHFKTWEEQEDNFHLQQAKLRSKIRIRDGRAKPIDLLAKYISAEDDDLAVEMHEPYTFLNGLTVADMEDLLEDIQVYMELEQGKNADFWRDMTTITEDEISKLRKLEASGKGPGERREGVNASVSSDVQSVFKGKTYNQLQVIFQGIEGKIRAGGPNLDMGYWESLLQQLRAHMARARLRERHQDVLRQKLYKLKQEQGVESEPLFPILKQEPQSPSRSLEPEDAAPTPPGPSSEGGPAEAEVDGATPTEGDGDGDGEGEGEGEAVLMEEDLIQQSLDDYDAGRYSPRLLTAHELPLDAHVLEPDEDLQRLQLSRQQLQVTGDASESAEDIFFRRAKEGMGQDEAQFSVEMPLTGKAYLWADKYRPRKPRFFNRVHTGFEWNKYNQTHYDFDNPPPKIVQGYKFNIFYPDLIDKRSTPEYFLEACADNKDFAILRFHAGPPYEDIAFKIVNREWEYSHRHGFRCQFANGIFQLWFHFKRYRYRR [CACTIN]”, the “solubility in G1/S (log2)” value in data set [1] was -0.924. In addition, the melting temperature in data set [2] (cell cycle stage: G1/S) is 47.9 °C; in data set [2] (cell cycle stage: mitosis) it was 50.4 °C. In addition, the thermal stability score in data set [3] (setting [5]) was 0.527; in data set [3] (cell cycle stage: mitosis) it was 0.928. Further, in data set [4], the “solubility change mitosis (log2)” value amounted to 0.985.
